In patent US5661126:

Target: recombinant human Mullerian Inhibiting Substance (human) (UniProt P03971)
Assay: absorption of DG-MIS with IgG (1:3) and Protein A Sepharose, MIS in supernatant by ELISA; MIS alone 9.0 nM

MIS level left after absorption: 8.8 nM
Substance: normal rabbit IgG (Dako Corporation, Denmark Lot 108) (polyclonal serum or antibody)
